Measurements as given in patent publication US20090298197, “SERS-BASED METHODS FOR DETECTION OF BIOAGENTS” (OXONICA MATERIALS INC., published 2009).

Columns and labels:
alpha-thrombin [1] = biological target: T1, alpha-thrombin (UniProt P00734;P00734 P00734:328-363,P00734:364-622); assay: fluorescence restored on nanowire beacon with 10 ug/ml thrombin (form not specified), Tris-HCl, 30 min, room temperature
ovalbumin = ovalbumin (UniProt P01012 P01012:2-386); assay: negative control, little signal; nanowire fluorescence beacon; conditions: label: TAMRA 3'; no hairpin
Chain of ovalbumin (P01012 2-386, one chain of several): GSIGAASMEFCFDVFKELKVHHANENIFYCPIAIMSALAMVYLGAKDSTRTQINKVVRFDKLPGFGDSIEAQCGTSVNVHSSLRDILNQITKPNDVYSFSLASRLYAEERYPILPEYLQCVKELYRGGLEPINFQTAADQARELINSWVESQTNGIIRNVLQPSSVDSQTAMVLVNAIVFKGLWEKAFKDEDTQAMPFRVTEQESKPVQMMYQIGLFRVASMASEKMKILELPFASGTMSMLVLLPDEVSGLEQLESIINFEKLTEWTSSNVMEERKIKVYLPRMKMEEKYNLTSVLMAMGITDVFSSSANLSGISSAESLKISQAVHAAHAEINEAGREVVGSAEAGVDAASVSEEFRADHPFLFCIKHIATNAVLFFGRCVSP
Experimental: Probe assembly was performed as for standard molecular beacons. The assay was performed by diluted the thrombin protein with Tris-HCl buffer to attain desired concentration. Then 50 μl thrombin protein solution was mixed with 3 μl nanowire assembled aptamer probe in a microfuge tube and incubated for 30 min, with rotation at room temperature. The contents were centrifuged, washed with 0.1% Tween-20/PBS once and fluorescence images acquired using fluorescence microscope described above.
As expected no fluorescence was observed, due to the fluorescence quenching of the TAMRA by the nanowire. However, when the thrombin protein was added to the reaction by incubating 10 μg/ml thrombin with 3 μl nanowire-Apt1 assembled probes for 30 min, fluorescence was restored. An investigation into the effect of the hairpin in the beacons was carried out. […] This sequence was therefore used for subsequent experiments. […] When this experiment was repeated in 50% serum, the detection limit was again approximately 50 nM (FIG. 15B). These are very encouraging results. Finally, it is important to understand the specificity of the assay, in addition to the sensitivity. THR Apt 3 assembled nanowires were incubated with a pair of homologous proteins, α Thrombin and β Thrombin, and with ovalbumin as a negative control, and a blank (labeled control). […]

alpha-thrombin [2] = biological target: T1, alpha-thrombin; assay: nanowire fluorescence beacon; highest signal to noise; thrombin detected at about 50 nM in buffer and in 50% serum (detection limit, not Kd); greatest signal wi

CCAACGGTTGGTGTGGTTGG (ssDNA, 5' thiol-(CH2)6, 3' (CH2)7-TAMRA, assembled on Au/Ag nanowires) [THR Apt1]: binds (alpha-thrombin [1]).

TGGTTGGTGTGGTTGG (ssDNA, 5' thiol-(CH2)6, 3' (CH2)7-TAMRA, assembled on Au/Ag nanowires) [THR Apt3]: no binding (ovalbumin); binds (alpha-thrombin [2]).
